From the DeepSol protein solubility set

Experiment: soluble on expression in E. coli; label from the status in PepcDB or PDB records

| Sequence | soluble on expression in E. coli |
| --- | --- |
| GPGSMTTGQQQSIEGLRNELQQLEDSLMVREEALQRKRQQSERLNNELVDAYLSTTSQEESRASANEAYRTASRAKQVLENSETQSNESMWSNRDDYVSQLMAADEERKGVEADIGEVSSRIKELREDKVDAQKRLTVARLMSMLDDLQSLLKKKVYGPSGSEETRAQELLKTVQELSRERERTIHLLSKKEREMASLIDLKQRRIEELRKEFTRNVSMYADSNKRELLNVAQRIQGERHQLLEEMERLEEANRKITDVLMDTKYTTESAIKDRDTALSAVETMGVSTNPERECLQLRERIQKANAERRMYVLKMEEVQSSIDEDTVMYNTRMSKLRKEILFYQDETVRFEKENKDLKHLCDTLAGSLDGSH | not soluble |
| LRSRRKPSSRIGRRPSTTQDRISTVGIELFTEQGFDATSVDEVAEASGIARRTLFRYFPSKNAIPWGDFDAHLAEMRAQLAAQPDDIPIVDGLTAALLQFNAFPASEEINHRKRMGLILRVPALQAYSVVMYEGWRNVIAEYVASRLGTSPTDHVPRTVGYLLLGVAMSAYEQWLDDDSLELNELLASGMQSLYDGLSSLGEPDTRT | soluble |
| MGSDKIHHHHHHMSNRLSVVMIAKNAADLLPDCLGSVSWADEIIVLDSGSTDNTVELARRLGAQVYTHTDWRGYGIQRQRAQDYATGDWVLMIDTDERVTPELRQAILKVLDAPQRGAIYSIARRNYFLGRFMRHSGWYPDRVLRLYERARYRYNDNLVHESLDSLGAEVIPLTGDLLHLTCRDFAGFQQKQLAYAAAWALERHQKGKKTSMAGIFSHTLGAFLKTLLLRGGVLDGKQGWLLAMVNAQYTFTKYTELWALSHGYSEKESS | not soluble |
| MKISLVTVTFNSAKTLCDTIHSVLSQSYTNIEYIIVDGLSNDETVTLIKEYEPLFQGRLKWISEKDKGLYDAMNKGIRMSTGDIVGIINSDDFYHRGDVLEKVAESFEAGETEAIYGDVRFVNPDNLDRTVRYYSSKRFVPSLFRFGFMPAHPTFFTYRKYFDQFGYYKTNYKIAADYELLVRFLYVHRLKSKYLPLDFMKMRTGGASTASIKSNILLNKEIVRACKENGIWTCYPLLLLKYLVKVFELIFIKKLEHHHHHH | soluble |
| MTIKYLTKNDVLAACIGGSVYASGGGGFYEHGLEMGEAAVALSPVVLKTIDEFEEDDLIITQTAIGAPAGTTDWQMLGKDYIRAVELLLEKHPHPEKIKGILTPQNGKSSSTNGWLSASALGLAVVHATGDIRAHPTGKMGNMGVANDTTYETIQAVSGGRRETGRHIELSVQGTAAYTSKILRIASDLSGGFIAAARHPLTASYIKQNAVIGGLSKAIELGYCILEHQNEDGSSIIDAIVKHTHGEILAKGKVVAKDMTYTDEAFDVGKVKIKTESDNVTLHVQNEFMAVDSQALGRVATYPDVITLFRAKDAKALSTDEISIDEEVVVFKISHKHFPLSTGVKDPSVYPEVENVLGIDLYRHAFKLEHHHHHH | soluble |
| MSKSPDAFRTISEVAEWLGVQAHVLRFWESKFNQVKPVKRAGGRRYYRPADMQLLGGIKKLLHDDGMTIKGVQKLLREQGVAHVAEQSQD | not soluble |
| MRDEISSRIRRLPAGMSGGRAPDFALAVYGGAFDPPHPGHESVIRRALLCAERVALVPSHRHAFGKRMGDFELRCRWLARLARRIDPRRVYCEPIEAGLMPDRPAVYSIDLLEALAARSGLASARIALLIGADNEAELPRFERAAELCWRFGRLVAEERLPLHSSMIRQRLREGLAVPEAWCLPEVKDELHCYGGERQAV | not soluble |
| MGSDKIHHHHHHMPTLIERIHQVELGNLTQLDQLCHQLGLPYFLMGGSLLGAIRHQGFIPWDDDVDVGLLRADYDQLLAAAPTHLADSPYFLQTPTSDENYGLSYAKLLDRRTYIEEKRNVNNARKGIFIDIFPLDRIPQDTSAQQKQSTKFQLLNTRILLQLRYHLVDNPLRKLQGPLSSEQLTSVNALKAERQAVMTQYQAEITLPQVKNLSSQYAYAKEVFTVAELSDLTTVPFEHLQVQVPRNYATILTRMYGDYLALPPENQRTKKHLERVIMDNQVFTD | not soluble |
| MSLNMLVINGTPRKHGRTRIAASYIAALYHTDLIDLSEFVLPVFNGEAEQSELLKVQELKQRVTKADAIVLLSPEYHSGMSGALKNALDFLSSEQFKYKPVALLAVAGGGKGGINALNNMRTVMRGVYANVIPKQLVLDPVHIDVENATVAENIKESIKELVEELSMFAKAGNPGVEGGSHHHHHH | soluble |
| MSEKPIDKVFNRILVGVDDSADAQLAFRYAVRRAVKDNATLIITSILENDEMNVYQALTKDYVHGERYELVEHLKKYRDIAAKAGVKDIKEIVDEGNAGETIVKNVIPAVKADLLIIGSLSKKGISKYFGSQAAYMAKYAPISVLIIR | not soluble |
| MGSMSMNAEQTVAELIARSNRLGSDPKNTNYAGGNTSAKGTDTDPVTGQPVELLWVKGSGGDLGTLTENGLAVLRLDRMRALVDVYPGVEREDEMVAAFDYCLHGRGGAAPSIDTAMHGLVDAAHVDHLHPDSGIALATAADGEALTKQIFGDRVVWVPWRRPGFQLGLDIADIKRRNPQAIGTILGGHGITAWGSTSAEAEAHSLEIIETAERYIAENGRPEPFLEHHHHHH | not soluble |
| MAHHHHHHMKGNKGANIAYPDKYHKVTEFFDREYGDLETCTKLNDCQKLLFYALRQQVEHGPCTSGAPFIWQVRERAKHDAWKQLGAMTKFEAMVHFVTHLEECIGGNVDWGEKLRDLNGMRDQQRVGVENGTGESNANEQTERGVSEAHWDADVQAHLQPSAENIEYLAREVMRLRGELQQVRPNRVVPTPIVVPPRKPIDYVSTKNIVPPARTLATVATRTALLNAQTTNNLVERQPQGWGEWFGLI | soluble |
| MSLTTKDHSLATESPTLQQLGEFAVIDRLVRGRRQPATVLLGPGDDAALVSAGDGRTVVSTDMLVQDSHFRLDWSTPQDVGRKAIAQNAADIEAMGARATAFVVGFGAPAETPAAQASALVDGMWEEAGRIGAGIVGGDLVSCRQWVVSVTAIGDLDGRAPVLRSGAKAGSVLAVVGELGRSAAGYALWCNGIEDFAELRRRHLVPQPPYGHGAAAAAVGAQAMIDVSDGLLADLRHIAEASGVRIDLSAAALAADRDALTAAATALGTDPWPWVLSGGEDHALVACFVGPVPAGWRTIGRVLDGPARVLVDGEEWTGYAGWQSFGEPDNQGSLGEGHHHHHH | soluble |
| MSNSYEGCGDLTIFVAVALNKVIGHKNQIPWPHITHDFRFLRNGTTYIPPEVLSKNPDIQNVVIFGRKTYESIPKASLPLKNRINVILSRTVKEVPGCLVYEDLSTAIRDLRANVPHNKIFILGGSFLYKEVLDNGLCDKIYLTRLNKEYPGDTYFPDIPDTFEITAISPTFSTDFVSYDFVIYERKDCKTVFPDPPFDQLLMTGTDISVPKPKYVACPGVRIRNHEEFQYLDILADVLSHGVLKPNRTGTDAYSKFGYQMRFDLSRSFPLLTTKKVALRSIIEELLWFIKGSTNGNDLLAKNVRIWELNGRRDFLDKNGFTDREEHDLGPIYGFQWRHFGAEYLDMHADYTGKGIDQLAEIINRIKTNPNDRRLIVCSWNVSDLKKMALPPCHCFFQFYVSDNKLSCMMHQRSCDLGLGVPFNIASYSILTAMVAQVCGLGLGEFVHNLADAHIYVDHVDAVTTQIARIPHPFPRLRLNPDIRNIEDFTIDDIVVEDYVSHPPIPMAMSA | soluble |
| MDIKELHVKTVKRGENVTMECSMSKVTNKNNLAWYRQSFGKVPQYFVRYYSSNSGYKFAEGFKDSRFSMTVNDQKFDLNIIGAREDDGGEYFCGEVEGIIIKFTSGTRLQFEGSNEGSKSSDGEGSSCPDQMHVLVW | soluble |
| MQAKIKNKRVLVKFSGEALAGDNQFGIDIHVLDHIAKEIKSLVENDIEVGIVIGGGNIIRGVSAAQGGIIRRTSGDYMGMLATVINAVAMQEALEHIGLDTRVQSAIEIKEICESYIYRKAIRHLEKGRVVIFGAGTGNPFFTTDTAATLRAIEIGSDLIIKATKVDGIYDKDPNKFKDAKKLDTLSYNDALIGDIEVMDDTAISLAKDNKLPIVVCNMFKKGNLLQVIKHQQGVFSMVKLEHHHHHH | not soluble |
| MSAETYVMEIDGGPGDLHCMKCLKICNYLKDSYCCKKTKNMTLPQKKAESAFLMICLQRNTIELMVTALLANKKIIDSKGNCAFCRNKKQHEEEKWCAGRTKLQLFLHRIDKDELKVEEYLEKYLEIKTRNRMEQLDIVQARIVREMKAVAIAQGKSEEEVEHILAKQGRKARRMQRSEYKHAEEDNKGVRQRLAAKLVAKKSEIIERFCLAQRTVFVKADCPNVYGRTTTHISYLLE | not soluble |
